Measurements reported in IntAct's records for PubMed 29749471.

B1: Bcl-2-like protein 12 (Homo sapiens), Q9HB09 (parent)
chain: MAGSEELGLREDTLRVLAAFLRRGEAAGSPVPTPPRSPAQEEPTDFLSRLRRCLPCSLGRGAAPSESPRPCSLPIRPCYGLEPGPATPDFYALVAQRLEQLVQEQLKSPPSPELQGPPSTEKEAILRRLVALLEEEAEVINQKLASDPALRSKLVRLSSDSFARLVELFCSRDDSSRPSRACPGPPPPSPEPLARLALAMELSRRVAGLGGTLAGLSVEHVHSFTPWIQAHGGWEGILAVSPVDLNLPLD

Variants of: B1
Details: with bax_human BAX

Variant | effect of a mutation on the interaction
MAGSEELGLREDTLRVLAAFLRRGEAAGSPVPTPPRSPAQEEPTDFLSRLRRCLPCSLGRGAAPSESPRPCSLPIRPCYGLEPGPATPDFYALVAQRLEQLVQEQLKSPPSPELQGPPSTEKEAILRRLVALLAEEAEVINQKLASDPALRSKLVRLSSDSFARLVELFCSRDDSSRPSRACPGPPPPSPEPLARLALAMELSRRVAGLGGTLAGLSVEHVHSFTPWIQAHGGWEGILAVSPVDLNLPLD [E134A] | with no effect
MAGSEELGLREDTLRVLAAFLRRGEAAGSPVPTPPRSPAQEEPTDFLSRLRRCLPCSLGRGAAPSESPRPCSLPIRPCYGLEPGPATPDFYALVAQRLEQLVQEQLKSPPSPELQGPPSTEKEAILRRLVALLEEAAEVINQKLASDPALRSKLVRLSSDSFARLVELFCSRDDSSRPSRACPGPPPPSPEPLARLALAMELSRRVAGLGGTLAGLSVEHVHSFTPWIQAHGGWEGILAVSPVDLNLPLD [E136A] | with no effect
MAGSEELGLREDTLRVLAAFLRRGEAAGSPVPTPPRSPAQEEPTDFLSRLRRCLPCSLGRGAAPSESPRPCSLPIRPCYGLEPGPATPDFYALVAQRLEQLVQEQLKSPPSPELQGPPSTEKEAILRRLVALAEEEAEVINQKLASDPALRSKLVRLSSDSFARLVELFCSRDDSSRPSRACPGPPPPSPEPLARLALAMELSRRVAGLGGTLAGLSVEHVHSFTPWIQAHGGWEGILAVSPVDLNLPLD [L133A] | with no effect
MAGSEELGLREDTLRVLAAFLRRGEAAGSPVPTPPRSPAQEEPTDFLSRLRRCLPCSLGRGAAPSESPRPCSLPIRPCYGLEPGPATPDFYALVAQRLEQLVQEQLKSPPSPELQGPPSTEKEAILRRAVALLEEEAEVINQKLASDPALRSKLVRLSSDSFARLVELFCSRDDSSRPSRACPGPPPPSPEPLARLALAMELSRRVAGLGGTLAGLSVEHVHSFTPWIQAHGGWEGILAVSPVDLNLPLD [L129A] | with no effect
MAGSEELGLREDTLRVLAAFLRRGEAAGSPVPTPPRSPAQEEPTDFLSRLRRCLPCSLGRGAAPSESPRPCSLPIRPCYGLEPGPATPDFYALVAQRLEQLVQEQLKSPPSPELQGPPSTEKEAILRRLVAALEEEAEVINQKLASDPALRSKLVRLSSDSFARLVELFCSRDDSSRPSRACPGPPPPSPEPLARLALAMELSRRVAGLGGTLAGLSVEHVHSFTPWIQAHGGWEGILAVSPVDLNLPLD [L132A] | with no effect
MAGSEELGLREDTLRVLAAFLRRGEAAGSPVPTPPRSPAQEEPTDFLSRLRRCLPCSLGRGAAPSESPRPCSLPIRPCYGLEPGPATPDFYALVAQRLEQLVQEQLKSPPSPELQGPPSTEKEAALRRLVALLEEEAEVINQKLASDPALRSKLVRLSSDSFARLVELFCSRDDSSRPSRACPGPPPPSPEPLARLALAMELSRRVAGLGGTLAGLSVEHVHSFTPWIQAHGGWEGILAVSPVDLNLPLD [I125A] | with no effect

Variants of: B1
Details: with BCL2L1, Q07817-1
BCL2L1, Q07817-1, sequence (Q07817 whole entry): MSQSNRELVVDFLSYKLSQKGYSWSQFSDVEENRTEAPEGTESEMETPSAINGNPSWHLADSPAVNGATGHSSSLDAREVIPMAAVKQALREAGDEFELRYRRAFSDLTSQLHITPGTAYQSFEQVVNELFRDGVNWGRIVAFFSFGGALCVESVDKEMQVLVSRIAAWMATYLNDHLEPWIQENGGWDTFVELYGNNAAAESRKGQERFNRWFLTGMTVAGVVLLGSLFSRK

Variant | effect of a mutation on the interaction
MAGSEELGLREDTLRVLAAFLRRGEAAGSPVPTPPRSPAQEEPTDFLSRLRRCLPCSLGRGAAPSESPRPCSLPIRPCYGLEPGPATPDFYALVAQRLEQLVQEQLKSPPSPELQGPPSTEKEAILRRAVALLEEEAEVINQKLASDPALRSKLVRLSSDSFARLVELFCSRDDSSRPSRACPGPPPPSPEPLARLALAMELSRRVAGLGGTLAGLSVEHVHSFTPWIQAHGGWEGILAVSPVDLNLPLD [L129A] | disrupting interaction strength

Variants of: B1
Details: with bcl2_human BCL2, P10415
bcl2_human BCL2, P10415, sequence (P10415 whole entry): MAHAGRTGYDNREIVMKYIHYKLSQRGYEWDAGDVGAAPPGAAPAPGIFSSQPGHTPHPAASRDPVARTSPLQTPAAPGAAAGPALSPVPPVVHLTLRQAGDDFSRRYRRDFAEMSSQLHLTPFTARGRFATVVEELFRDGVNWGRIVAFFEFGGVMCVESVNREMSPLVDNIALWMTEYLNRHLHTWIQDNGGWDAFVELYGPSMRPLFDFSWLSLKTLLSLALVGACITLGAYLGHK

Variant | effect of a mutation on the interaction
MAGSEELGLREDTLRVLAAFLRRGEAAGSPVPTPPRSPAQEEPTDFLSRLRRCLPCSLGRGAAPSESPRPCSLPIRPCYGLEPGPATPDFYALVAQRLEQLVQEQLKSPPSPELQGPPSTEKEAILRRAVALLEEEAEVINQKLASDPALRSKLVRLSSDSFARLVELFCSRDDSSRPSRACPGPPPPSPEPLARLALAMELSRRVAGLGGTLAGLSVEHVHSFTPWIQAHGGWEGILAVSPVDLNLPLD [L129A] | disrupting interaction strength

Variants of: B1
Details: with gsk3b_human GSK3B

Variant | effect of a mutation on the interaction
MAGSEELGLREDTLRVLAAFLRRGEAAGSPVPTPPRSPAQEEPTDFLSRLRRCLPCSLGRGAAPSESPRPCSLPIRPCYGLEPGPATPDFYALVAQRLEQLVQEQLKSPPSPELQGPPSTEKEAALRRLVALLEEEAEVINQKLASDPALRSKLVRLSSDSFARLVELFCSRDDSSRPSRACPGPPPPSPEPLARLALAMELSRRVAGLGGTLAGLSVEHVHSFTPWIQAHGGWEGILAVSPVDLNLPLD [I125A] | disrupting interaction strength
